Assay results taken from the Human Domainome abundance scans (Beltran et al. 2025).
± gives the uncertainty stated by the source.

B1: Zinc finger homeobox protein 3, residues 2244 to 2299; numbered along this chain, Q15911 (parent)
chain: SSRTRFTDYQLRVLQDFFDANAYPKDDEFEQLSNLLNLPTRVIVVWFQNARQKARK

Variants of: B1
Assay: abundance fitness (aPCA) (normalised: wild type 0, dead -1); higher = more abundant; growth selection in yeast, the domain comes from the species named
Details: Homo sapiens

Abundance fitness: each site, then its substitutions
Q15: Y -0.559 ± 0.31, M -0.155 ± 0.13, P -0.889 ± 0.17, C -0.668 ± 0.16, L -0.079 ± 0.095, K -0.243 ± 0.18, N -0.077 ± 0.18, T -0.113 ± 0.12, S -0.22 ± 0.096, W -0.213 ± 0.099, V -0.319 ± 0.088, F -0.299 ± 0.17, R -0.213 ± 0.078, D -0.172 ± 0.15, E 0.015 ± 0.12, H -0.036 ± 0.19, G -0.01 ± 0.073
R12: A -0.455 ± 0.081, T -0.136 ± 0.073, C -0.531 ± 0.096, E -0.422 ± 0.18, M -0.378 ± 0.12, G -0.238 ± 0.11, F -0.738 ± 0.087, N 0.035 ± 0.086, Q 0.045 ± 0.1, D 0.024 ± 0.087, L -0.221 ± 0.065, H 0.051 ± 0.066, S -0.149 ± 0.069, Y -0.524 ± 0.081, I -0.312 ± 0.076, K 0.169 ± 0.24, P -0.794 ± 0.088, V -0.466 ± 0.079, W -0.504 ± 0.16
F6: Y -0.06 ± 0.093, R -0.703 ± 0.092, P -0.774 ± 0.091, T -0.433 ± 0.09, A -0.678 ± 0.098, K -0.408 ± 0.16, M 0.094 ± 0.11, V -0.21 ± 0.077, H -0.672 ± 0.1, N -0.52 ± 0.1, I -0.164 ± 0.078, G -0.633 ± 0.1, E -0.657 ± 0.21, C -0.345 ± 0.085, L -0.321 ± 0.067
D26: C -0.506 ± 0.2, E -0.214 ± 0.14
D8: F -0.591 ± 0.24, A -0.123 ± 0.082, P -0.235 ± 0.13, H -0.269 ± 0.33, E -0.138 ± 0.1, L -0.332 ± 0.093, I -0.641 ± 0.25, C -0.022 ± 0.17, W -0.401 ± 0.14, T -0.158 ± 0.1, Q -0.035 ± 0.17, M -0.202 ± 0.14, K -0.027 ± 0.14, N -0.237 ± 0.15, G -0.145 ± 0.1, R -0.173 ± 0.099, V -0.405 ± 0.086
F18: Q -0.268 ± 0.14, I -0.249 ± 0.22, L -0.19 ± 0.1, S -0.349 ± 0.1, E -0.579 ± 0.12, A -0.279 ± 0.086, G -0.984 ± 0.11, C -0.174 ± 0.12, V -0.435 ± 0.084, Y 0.011 ± 0.18, W -0.424 ± 0.13, K -0.625 ± 0.14, M -0.298 ± 0.14, T -0.772 ± 0.14, N -0.733 ± 0.29
Y9: W -0.217 ± 0.099, H -0.129 ± 0.27, D 0.002 ± 0.16, E -0.007 ± 0.11, A 0.083 ± 0.1, P -0.195 ± 0.14, G -0.063 ± 0.078, N -0.097 ± 0.16, L -0.216 ± 0.092, T -0.135 ± 0.15, M -0.005 ± 0.12, K 0.162 ± 0.13, I -0.383 ± 0.22, S 0.053 ± 0.094, Q 0.211 ± 0.16
A22: Y -0.196 ± 0.098, R -0.147 ± 0.069, G 0.015 ± 0.079, M 0.106 ± 0.11, C -0.156 ± 0.086, E 0.082 ± 0.11, P 0.101 ± 0.073, W -0.054 ± 0.12, K -0.17 ± 0.11, I -0.07 ± 0.092, Q -0.127 ± 0.087, H -0.125 ± 0.079, F -0.353 ± 0.1, T 0.01 ± 0.077, N -0.024 ± 0.081, L -0.129 ± 0.07, V -0.14 ± 0.071, D 0.219 ± 0.093
P24: R -0.633 ± 0.12, G -1.24 ± 0.28, A -0.555 ± 0.19, H -0.927 ± 0.43, T -0.856 ± 0.35, F -0.533 ± 0.37, S -0.734 ± 0.27, N -0.922 ± 0.28, V -0.657 ± 0.22, W -0.381 ± 0.19
F17: M -0.039 ± 0.14, Q -0.47 ± 0.14, W -0.214 ± 0.11, R 0.084 ± 0.076, Y 0.03 ± 0.13, T -0.074 ± 0.12, P -1.08 ± 0.23, E -0.076 ± 0.12, V -0.124 ± 0.087, K 0.011 ± 0.13, S -0.025 ± 0.11, C -0.222 ± 0.15, L -0.381 ± 0.1, H 0.245 ± 0.19, A 0.17 ± 0.1, N -0.125 ± 0.16, D -0.876 ± 0.18
D19: P -0.686 ± 0.5, S -0.299 ± 0.24, V -0.141 ± 0.27, W -0.329 ± 0.25, C -0.036 ± 0.45, R -0.012 ± 0.14, G -0.414 ± 0.15, Q -0.263 ± 0.23, T 0.046 ± 0.24, E 0.172 ± 0.23, M 0.169 ± 0.47, K -0.164 ± 0.27, A -0.024 ± 0.22
N21: A -0.428 ± 0.1, R -0.237 ± 0.083, Q -0.26 ± 0.13, D -0.306 ± 0.16, H 0.031 ± 0.18, E -0.262 ± 0.12, W -0.722 ± 0.14, L -0.912 ± 0.12, T 0.011 ± 0.13, G -0.378 ± 0.087, S -0.157 ± 0.099, C -0.232 ± 0.16, P -0.74 ± 0.18, V -0.422 ± 0.099, M -0.394 ± 0.13, K 0.166 ± 0.14
T7: R -0.556 ± 0.086, I -0.586 ± 0.19, Y -0.446 ± 0.2, P -0.84 ± 0.17, S -0.186 ± 0.092, M -0.46 ± 0.13, D -0.258 ± 0.14, N -0.565 ± 0.21, L -0.363 ± 0.11, G -0.487 ± 0.074, F -0.725 ± 0.24, K -0.272 ± 0.16, H -0.665 ± 0.19, V -0.614 ± 0.094, C -0.563 ± 0.14, A -0.289 ± 0.089
D16: C -0.472 ± 0.13, S -0.023 ± 0.11, R -0.035 ± 0.082, E -0.129 ± 0.11, Q -0.035 ± 0.15, I -0.22 ± 0.25, A -0.353 ± 0.11, Y -0.797 ± 0.24, V -0.344 ± 0.11, T -0.114 ± 0.16, F -0.596 ± 0.26, K -0.179 ± 0.16, G -0.023 ± 0.077, H 0.033 ± 0.15, W -0.714 ± 0.12, N -0.222 ± 0.19
L14: G -0.931 ± 0.095, E -0.807 ± 0.12, C -0.508 ± 0.15, R -0.93 ± 0.1, F -0.768 ± 0.2, Y -1.05 ± 0.31, N -0.953 ± 0.25, H -1.24 ± 0.3, D -0.825 ± 0.19, I -0.108 ± 0.17, V -0.493 ± 0.091, M -0.019 ± 0.11, P -0.832 ± 0.19, Q -0.549 ± 0.18, W -0.946 ± 0.15, S -0.849 ± 0.12, K -0.948 ± 0.17, A -0.668 ± 0.12
L11: I 0.055 ± 0.17, Y -0.404 ± 0.2, A -0.181 ± 0.084, F -0.364 ± 0.14, T 0.172 ± 0.15, K -0.146 ± 0.18, H -0.203 ± 0.19, C -0.743 ± 0.16, M 0.204 ± 0.16, W -0.361 ± 0.11, N 0.007 ± 0.19, G -0.171 ± 0.09, R -0.141 ± 0.09, V 0.015 ± 0.078, S 0.062 ± 0.089, E 0.038 ± 0.12
A20: F -0.618 ± 0.33, M -0.268 ± 0.15, T -0.044 ± 0.086, W -0.36 ± 0.11, P -0.543 ± 0.18, L -0.188 ± 0.085, Y -0.291 ± 0.23, E -0.115 ± 0.13, N 0.24 ± 0.23, I -0.405 ± 0.21, S -0.065 ± 0.12, D -0.102 ± 0.16, V -0.249 ± 0.086, Q -0.111 ± 0.12, G -0.13 ± 0.081, R 0.075 ± 0.081
Q10: N -0.76 ± 0.19, I -0.769 ± 0.38, W -0.964 ± 0.13, S -0.445 ± 0.091, L -0.919 ± 0.15, C -0.764 ± 0.17, A -0.649 ± 0.092, P -0.923 ± 0.18, K -0.924 ± 0.17, T -0.714 ± 0.14, E -0.59 ± 0.12, H -0.563 ± 0.16, M -0.216 ± 0.12, F -0.569 ± 0.24, D -0.631 ± 0.16, R -0.724 ± 0.093, G -0.863 ± 0.08
Y23: M 0.041 ± 0.092, R -0.019 ± 0.068, A -0.188 ± 0.085, W 0.019 ± 0.081, Q -0.011 ± 0.1, C -0.283 ± 0.11, D -0.018 ± 0.13, S -0.051 ± 0.092, P -0.749 ± 0.14, I 0.092 ± 0.13, E 0.139 ± 0.089, N 0.013 ± 0.16, L -0.161 ± 0.073, T -0.043 ± 0.093, V -0.099 ± 0.075, F 0.122 ± 0.14, G -0.332 ± 0.068, K -0.13 ± 0.099
K25: Q -0.26 ± 0.14, G -0.14 ± 0.085, D -0.466 ± 0.15, L -0.136 ± 0.084, I -0.226 ± 0.19, T -0.161 ± 0.11, S -0.133 ± 0.11, V -0.115 ± 0.086, E -0.306 ± 0.11, A -0.075 ± 0.095, P -0.228 ± 0.13, R 0.013 ± 0.086, F -0.338 ± 0.21, C -0.184 ± 0.14, H -0.267 ± 0.16, W -0.512 ± 0.13
V13: N -0.244 ± 0.18, I -0.359 ± 0.24, K 0.008 ± 0.11, F -0.291 ± 0.19, Y 0.003 ± 0.19, G -0.339 ± 0.084, W -0.794 ± 0.14, T -0.116 ± 0.11, A -0.018 ± 0.099, L -0.093 ± 0.073, D -0.692 ± 0.19, H -0.178 ± 0.17, M 0.173 ± 0.1, S -0.048 ± 0.088, P -0.773 ± 0.13, E -0.237 ± 0.12, Q 0.168 ± 0.12, C -0.276 ± 0.15, R -0.323 ± 0.088
R5: N 0.305 ± 0.099, P 0.026 ± 0.092, S 0.2 ± 0.072, Y 0.344 ± 0.088, V 0.362 ± 0.069, T 0.274 ± 0.084, Q 0.092 ± 0.11, W 0.234 ± 0.097
